Test results: US20180155413A1 (AstraZeneca / MedImmune, published 2018)

Experiments:
Test in all cases: cell-based or functional assay
HA of B/Lee/40 = HA of B/Lee/40 (influenza B virus, UniProt P03460 16-584)
[1] = target: HA of ca B/Beijing/243/97 (victoria) (influenza B virus)
[2] = target: HA of B/Hong Kong/330/2001 (victoria) (influenza B virus)
[3] = target: HA of B/Malaysia/2506/2004 (victoria) (influenza B virus)
[4] = target: HA of B/Ohio/1/2005 (victoria) (influenza B virus)
[5] = target: HA of B/Yamagata/16/88 (yamagata) (influenza B virus)
[6] = target: HA of ca B/Georgia/02/98 (yamagata) (influenza B virus)
[7] = target: HA of B/Yamanashi/166/98 (yamagata) (influenza B virus)
[8] = target: HA of ca B/Johannesburg/5/99 (yamagata) (influenza B virus)
[9] = target: HA of B/Sichuan/379/99 (yamagata) (influenza B virus)

Chain of HA of B/Lee/40 (P03460 16-584 limits assumed): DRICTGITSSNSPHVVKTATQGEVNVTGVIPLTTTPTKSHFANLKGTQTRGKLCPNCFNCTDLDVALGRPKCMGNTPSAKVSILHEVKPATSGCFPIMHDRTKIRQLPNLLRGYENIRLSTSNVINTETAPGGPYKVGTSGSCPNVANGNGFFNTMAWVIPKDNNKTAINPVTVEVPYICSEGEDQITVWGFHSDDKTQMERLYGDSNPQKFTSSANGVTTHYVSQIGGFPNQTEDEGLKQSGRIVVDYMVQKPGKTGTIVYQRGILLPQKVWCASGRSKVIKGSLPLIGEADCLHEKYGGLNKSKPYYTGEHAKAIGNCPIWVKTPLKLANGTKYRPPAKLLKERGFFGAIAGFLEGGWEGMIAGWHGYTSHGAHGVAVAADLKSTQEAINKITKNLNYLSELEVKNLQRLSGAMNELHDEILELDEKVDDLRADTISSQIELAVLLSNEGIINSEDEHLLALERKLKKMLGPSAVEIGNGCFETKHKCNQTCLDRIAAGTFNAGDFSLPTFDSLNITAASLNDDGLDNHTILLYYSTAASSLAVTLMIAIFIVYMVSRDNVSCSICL

B1: GL20/39 BiS4 100/44 (bispecific antibody)
light: DIQMTQSPSSLSASVGDRVTITCRTSQSLSSYTHWYQQKPGKAPKLLIYAASSRGSGVPSRFSGSGSGTDFTLTISSLQPEDFATYYCQQSRTFGQGTKVEIKRTVAAPSVFIFPPSDEQLKSGTASVVCLLNNFYPREAKVQWKVDNALQSGNSQESVTEQDSKDSTYSLSSTLTLSKADYEKHKVYACEVTHQGLSSPVTKSFNRGEC
heavy: not shown
HA of B/Lee/40
  Hemagglutination Inhibition Titer: 61 nM
[1]
  Hemagglutination Inhibition Titer: 91 nM
[2]
  Hemagglutination Inhibition Titer: 244 nM
[3]
  Hemagglutination Inhibition Titer: 244 nM
[4]
  Hemagglutination Inhibition Titer: 244 nM
[5]
  Hemagglutination Inhibition Titer: 122 nM
[6]
  Hemagglutination Inhibition Titer: 122 nM
[7]
  Hemagglutination Inhibition Titer: 122 nM
[8]
  Hemagglutination Inhibition Titer: 122 nM
[9]
  Hemagglutination Inhibition Titer: 122 nM
